Test results reported in publication PMC5461540 (2017).
Read-outs that look alike come from different tables or passages of the source. Blank lines part the entries; values can stand above or below the binder they belong to. Where no end group is shown, it is not given here. [ ]: non-standard residue; d: D form. pS = N[C@@H](COP(=O)(O)O)C(=O)O

B3: MOB1A wild-type (natural protein)
chain: SFLFSSRSSKTFKPKKNIPEGSHQYELLKHAEATLGSGNLRQAVMLPEGEDLNEWIAVNTVDFFNQINMLYGTITEFCTEASCPVMSAGPRYEYHWADGTNIKKPIKCSAPKYIDYLMTWVQDQLDDETLFPSKIGVPFPKNFMSVAKTILKRLFRVYAHIYHQHFDSVMQLQEEAHLNTSFKHFIFFVQEFNLIDRRELAPLQELIEKLGSKDR

Key:
[1] = target: B3; test: FP
[2] = target: T1, yeast Mob1 (yeast, UniProt P40484 79-314); test: FP
T1 chain: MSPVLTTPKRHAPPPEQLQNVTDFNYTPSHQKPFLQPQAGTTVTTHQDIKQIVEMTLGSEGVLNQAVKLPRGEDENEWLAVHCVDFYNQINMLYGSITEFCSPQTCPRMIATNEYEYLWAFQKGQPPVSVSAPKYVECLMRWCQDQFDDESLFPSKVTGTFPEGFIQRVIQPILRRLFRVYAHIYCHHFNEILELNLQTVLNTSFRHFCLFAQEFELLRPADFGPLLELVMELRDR

[3] = target: B3; test: FP
[4] = target: T2, MOB3B (human, UniProt Q86TA1 2-216); test: FP
T2 chain: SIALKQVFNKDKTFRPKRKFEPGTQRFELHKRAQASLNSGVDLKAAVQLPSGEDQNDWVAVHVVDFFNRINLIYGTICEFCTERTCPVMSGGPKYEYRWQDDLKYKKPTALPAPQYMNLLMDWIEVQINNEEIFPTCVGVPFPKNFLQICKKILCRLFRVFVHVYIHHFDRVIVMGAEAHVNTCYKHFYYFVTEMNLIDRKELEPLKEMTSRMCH

[5] = target: T1, yeast Mob1; test: FP
[6] = target: T3, MOB1B (tags cleaved) (human, UniProt Q7L9L4-2 2-216); test: FP
T3 chain: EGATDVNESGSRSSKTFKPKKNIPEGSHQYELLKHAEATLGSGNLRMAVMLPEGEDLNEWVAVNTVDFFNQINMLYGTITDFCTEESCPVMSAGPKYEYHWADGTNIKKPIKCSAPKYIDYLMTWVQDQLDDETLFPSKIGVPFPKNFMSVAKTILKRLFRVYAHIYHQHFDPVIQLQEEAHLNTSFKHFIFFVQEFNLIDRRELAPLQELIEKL

[7] = target: T4, MOB3C (human, UniProt Q70IA8 2-216); test: FP
T4 chain: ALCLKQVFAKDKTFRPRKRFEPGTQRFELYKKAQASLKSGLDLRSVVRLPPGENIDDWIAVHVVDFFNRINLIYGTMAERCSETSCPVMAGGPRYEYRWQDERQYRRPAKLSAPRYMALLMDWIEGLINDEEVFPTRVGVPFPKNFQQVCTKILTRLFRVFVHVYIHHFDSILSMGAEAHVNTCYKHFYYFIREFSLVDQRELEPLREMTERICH

[8] = target: T5, MOB3A (human, UniProt Q96BX8 2-217); test: FP
T5 chain: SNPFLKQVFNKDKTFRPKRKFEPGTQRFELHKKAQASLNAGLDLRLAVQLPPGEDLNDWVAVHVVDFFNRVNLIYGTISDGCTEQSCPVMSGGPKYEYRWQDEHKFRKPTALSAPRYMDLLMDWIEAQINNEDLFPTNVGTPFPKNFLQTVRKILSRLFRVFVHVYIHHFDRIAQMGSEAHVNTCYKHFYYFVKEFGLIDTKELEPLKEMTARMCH

[9] = target: T6, FITC labeled MST1 pT380 phosphopeptide (human, UniProt Q13043, phosphothreonine at 380; FITC label (position not given)); test: FP
T6 sequence (Q13043 whole entry, looked up): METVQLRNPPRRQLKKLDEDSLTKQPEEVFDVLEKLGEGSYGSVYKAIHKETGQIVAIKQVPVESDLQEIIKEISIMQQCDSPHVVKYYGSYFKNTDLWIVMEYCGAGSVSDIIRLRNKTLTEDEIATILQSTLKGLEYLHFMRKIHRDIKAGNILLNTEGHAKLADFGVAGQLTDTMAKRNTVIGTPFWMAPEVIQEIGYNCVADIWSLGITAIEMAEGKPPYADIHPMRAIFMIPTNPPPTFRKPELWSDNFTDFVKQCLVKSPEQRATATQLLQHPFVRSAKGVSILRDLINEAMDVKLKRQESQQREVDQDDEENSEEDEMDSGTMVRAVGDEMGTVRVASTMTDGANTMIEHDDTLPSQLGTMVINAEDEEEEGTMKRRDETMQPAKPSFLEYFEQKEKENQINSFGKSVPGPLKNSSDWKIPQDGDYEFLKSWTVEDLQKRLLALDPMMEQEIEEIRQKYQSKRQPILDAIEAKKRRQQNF

[10] = target: T7, FITC labeled MST1 pT340 phosphopeptide (human, UniProt Q13043, phosphothreonine at 340; FITC label (position not given)); test: FP
T7 sequence (Q13043 whole entry, looked up): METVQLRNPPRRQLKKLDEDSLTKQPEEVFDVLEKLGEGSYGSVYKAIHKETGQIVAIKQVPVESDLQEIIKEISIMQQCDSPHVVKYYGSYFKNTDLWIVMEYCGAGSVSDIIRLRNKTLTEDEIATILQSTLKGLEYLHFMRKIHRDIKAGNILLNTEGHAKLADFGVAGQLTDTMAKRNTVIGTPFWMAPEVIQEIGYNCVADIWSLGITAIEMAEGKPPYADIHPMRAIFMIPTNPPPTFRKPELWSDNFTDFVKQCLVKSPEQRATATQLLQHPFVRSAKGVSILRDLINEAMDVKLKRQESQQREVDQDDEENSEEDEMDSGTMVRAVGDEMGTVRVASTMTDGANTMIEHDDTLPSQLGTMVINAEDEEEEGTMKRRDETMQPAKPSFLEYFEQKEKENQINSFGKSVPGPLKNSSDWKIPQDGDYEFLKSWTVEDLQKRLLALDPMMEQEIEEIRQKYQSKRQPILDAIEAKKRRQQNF

[11] = target: T8, FITC labeled MST1 pT329 phosphopeptide (human, UniProt Q13043, phosphothreonine at 329; FITC label (position not given)); test: FP
T8 sequence (Q13043 whole entry, looked up): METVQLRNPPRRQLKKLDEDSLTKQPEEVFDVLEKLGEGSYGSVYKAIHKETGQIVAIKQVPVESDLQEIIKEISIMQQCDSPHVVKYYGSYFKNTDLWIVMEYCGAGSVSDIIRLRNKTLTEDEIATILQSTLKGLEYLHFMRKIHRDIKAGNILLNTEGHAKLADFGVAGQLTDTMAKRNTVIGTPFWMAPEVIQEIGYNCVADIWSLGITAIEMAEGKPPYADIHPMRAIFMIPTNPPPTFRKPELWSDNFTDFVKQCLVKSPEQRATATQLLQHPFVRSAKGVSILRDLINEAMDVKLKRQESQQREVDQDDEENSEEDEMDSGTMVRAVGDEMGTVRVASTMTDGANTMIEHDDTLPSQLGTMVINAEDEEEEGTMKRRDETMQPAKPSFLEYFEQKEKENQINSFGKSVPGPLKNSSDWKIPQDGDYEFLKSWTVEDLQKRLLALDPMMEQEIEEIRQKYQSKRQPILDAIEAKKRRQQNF

[12] = target: T7, FITC labeled MST1 pT340 phosphopeptide; test: FP; remark: listed apart in the source
[13] = target: T8, FITC labeled MST1 pT329 phosphopeptide; test: FP; remark: listed apart in the source
[14] = target: MST1 pT380/pT387 peptide; test: FP; doubly phosphorylated pT380/pT387
[15] = target: T6, FITC labeled MST1 pT380 phosphopeptide; test: FP; remark: listed apart in the source
[16] = target: MST1 pT329/pT340 peptide; test: FP; doubly phosphorylated pT329/pT340

- Kd [1]: 0.31 µM
B1: FITC labeled phosphorylated MST1 T353 peptide (peptide)
chain: VASTMTDGANTMIEH
modifications: also: phosphothreonine at 353 (place in peptide not given here), FITC label, position not given here

- Kd [1]: 0.58 µM
- Kd [2]: 29 µM
- Kd [3]: 0.8 µM
- Kd [4]: 2.6 µM
- Kd [5]: 29.3 µM
- Kd [6]: 0.78 µM
- Kd [7]: 2.3 µM
- Kd [8]: 2.9 µM
B2: FITC labeled phosphorylated MST1 T367 peptide (peptide)
chain: DDTLPSQLGTMVINA
modifications: also: phosphothreonine at 367 (place in peptide not given here), FITC label, position not given here

Binder: B3
- Kd [9]: 185 µM
- Kd [10]: 66.1 µM
- Kd [11]: 46.5 µM
- Kd [12]: 66 µM
- Kd [13]: 47 µM
- Kd [14]: 95 µM
- Kd [15]: 186 µM
- Kd [16]: 49 µM

- Kd [2]: 0.4 µM
- Kd [3]: 30 µM
Binder: YH[pS]VVRYA (also: FITC label, position not given here) [optimized Nud1-like phosphoserine containing peptide (FITC labeled)]
